Reference: PMC10807135 (ACS chemical biology, 2023)
Where a chain is given by its changes, count along the chain named. Names and notes keep the numbering of the source. Read-outs that look alike come from different tables or passages of the source.

Columns and labels:
[1] = target: holo-AcpP (E. coli acyl carrier protein AcpP with phosphopantetheine) (Escherichia coli) (UniProt P0A6A8)
[2] = target: holo-AcpP (E. coli acyl carrier protein AcpP with phosphopantetheine) (Escherichia coli) (UniProt P0A6A8); remark: listed apart in the source
PltF Q438R D263K A230R = target: T1, PltF Q438R D263K A230R (Pseudomonas fluorescens, UniProt Q4KCY5 1-498, Q438R | D263K | A230R); test: NMR titration
T1 sequence: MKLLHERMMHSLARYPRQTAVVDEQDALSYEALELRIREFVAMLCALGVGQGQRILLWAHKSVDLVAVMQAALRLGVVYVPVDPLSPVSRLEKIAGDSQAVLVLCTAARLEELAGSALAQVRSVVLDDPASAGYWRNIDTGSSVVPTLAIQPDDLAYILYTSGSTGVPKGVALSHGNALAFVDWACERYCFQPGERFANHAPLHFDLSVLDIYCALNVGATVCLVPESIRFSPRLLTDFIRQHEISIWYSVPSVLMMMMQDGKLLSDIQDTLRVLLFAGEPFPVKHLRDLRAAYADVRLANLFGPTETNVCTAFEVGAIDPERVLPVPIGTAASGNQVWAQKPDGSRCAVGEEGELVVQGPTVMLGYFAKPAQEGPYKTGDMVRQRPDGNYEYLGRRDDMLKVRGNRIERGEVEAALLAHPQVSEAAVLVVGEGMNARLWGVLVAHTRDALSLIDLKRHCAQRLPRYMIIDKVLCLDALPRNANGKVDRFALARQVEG

B1: PltF Q438R (enzyme)
chain: T1 sequence with R230A, K263D
Q: With B1 as the binder, how does the turnover rate of AcpP prolylation (time course, HPLC) [1] read?
A: Its turnover rate of AcpP prolylation (time course, HPLC) is 0.264 AcpP h^-1.

B2: PltF Q438R K472R D263N (enzyme)
chain: T1 sequence with R230A, K263N, K472R
Q: B2 was tested. Which turnover rate of AcpP prolylation (time course, HPLC) [2] did it give?
A: Its turnover rate of AcpP prolylation (time course, HPLC) is 1.98 AcpP h^-1.

B3: desulfo-AcpP (15N-labelled E. coli acyl carrier protein AcpP loaded with a desulfo-PPant mimic) (natural protein, Escherichia coli)
chain: STIEERVKKIIGEQLGVKQEEVTNNASFVEDLGADSLDTVELVMALEEEFDTEIPDEEAEKITTVQAAIDYINGHQA
modifications: desulfo-phosphopantetheine (desulfo-PPant mimic) loaded onto apo-AcpP; uniform 15N labelling
Q: Does B3 bind (PltF Q438R D263K A230R)?
A: Result: binds
